The values below come from the RNAGym collection of RNA variant scans (doi:10.7554/elife.80360).

B1: Hairpin Ribozyme (parent)
chain: GUCCUCUUUCACGUGCGCGUGAAAGAGAGAAGUGAACCAGAGAAACACACGUUGUGGUAUAUUACCUGGUA

Variants of B1 are the subject of this data set. The data set is described as follows: self-cleavage, relative activity (ratio to wild type); higher = more cleavage; co-transcriptional.
Consider C3U U55G, for which the self-cleavage was 0.208.

C3U U55A: the self-cleavage amounted to 0.0909.

For the variant C4U U14A, the self-cleavage was found to be 0.376.

For the variant C4U U14C, the self-cleavage came out at 0.184.

In the case of C4U U14G, the self-cleavage was 0.418.

Turning to U5C G15A, the self-cleavage was 0.675.

Regarding C3U U14G, the self-cleavage is 0.442.

Turning to C4G A28U, the self-cleavage is 0.0783.

On to C4G A28G, for which the self-cleavage turned out to be 0.443.

Turning to C4A A36G, the self-cleavage turned out to be 0.198.

With C3U U62A, the self-cleavage turned out to be 0.158.

With U5C A39C, the self-cleavage was 0.51.

As for C3U G54C, the self-cleavage was found to be 0.211.

As to C4A U8A, the self-cleavage was 0.16.

As for C4A U8C, the self-cleavage turned out to be 0.113.

In the case of U5C G34A, the self-cleavage was 0.78.

Take C4G A24G: the self-cleavage was determined as 0.256.

For the variant C4G A24C, the self-cleavage turned out to be 0.177.

For C4G A24U, the self-cleavage was 0.183.

Consider C4G U70G, for which the self-cleavage was 0.219.

In the case of C4G U70A, the self-cleavage worked out at 0.161.

On to C4A U58A, for which the self-cleavage stood at 0.113.

As to C4A U58G, the self-cleavage is 0.183.

For C4G G54A, the self-cleavage is 0.144.

With C4G G54C, the self-cleavage worked out at 0.139.

Regarding C4U G40A, the self-cleavage is 0.147.

With C4G G15A, the self-cleavage was found to be 0.216.

Take C4G G15C: the self-cleavage worked out at 0.212.

In the case of C4G A36U, the self-cleavage worked out at 0.118.

Consider C4G A36C, for which the self-cleavage was determined as 0.103.

For the variant C4A C16A, the self-cleavage stood at 0.202.

With U5A G25U, the self-cleavage stood at 0.279.

Turning to C4G A49G, the self-cleavage was 0.101.

Take C4G A49U: the self-cleavage is 0.183.

As to U5A U53G, the self-cleavage was found to be 0.278.

As for C4G A30C, the self-cleavage worked out at 0.178.

In the case of C4G A30U, the self-cleavage was 0.175.

C4A C46U: the self-cleavage was 0.17.

Take C4A C46G: the self-cleavage came out at 0.165.

C4A U52A: the self-cleavage was found to be 0.206.

On to C4G G40A, for which the self-cleavage is 0.114.

As for U5C C50A, the self-cleavage is 0.0675.

As for C4U A49G, the self-cleavage was 0.0694.

In the case of U5C A71C, the self-cleavage stood at 1.16.

On to U5A U63G, for which the self-cleavage worked out at 0.264.

On to U5C C6U, for which the self-cleavage turned out to be 0.318.

Regarding U5C A64C, the self-cleavage came to 0.19.

Turning to U5C A64G, the self-cleavage came to 0.587.

U5C A64U: the self-cleavage was determined as 0.0907.

For C4U C12A, the self-cleavage came out at 0.333.

Consider C4U A23C, for which the self-cleavage came out at 0.3.

Regarding C4G C46G, the self-cleavage is 0.122.

For the variant U5A A23G, the self-cleavage was determined as 0.377.

Turning to C3U U8A, the self-cleavage is 0.361.

As for U5A U14G, the self-cleavage stood at 0.233.

In the case of C3U U53A, the self-cleavage worked out at 0.495.

As for C4A A41U, the self-cleavage is 0.504.

C4A A41C: the self-cleavage was 0.322.

Turning to C4G U60C, the self-cleavage stood at 0.224.

As to U5C C18U, the self-cleavage amounted to 0.613.

On to C4U C65A, for which the self-cleavage was 0.374.

Regarding C4U C65G, the self-cleavage turned out to be 0.0877.

Consider C4G U14A, for which the self-cleavage stood at 0.231.

Regarding C4G U14G, the self-cleavage was 0.265.

On to C4A A64U, for which the self-cleavage was found to be 0.0608.

C4A A64C: the self-cleavage amounted to 0.156.

As for C3U U63C, the self-cleavage was 0.264.

For C3U U63G, the self-cleavage worked out at 0.12.

Consider C4A G69C, for which the self-cleavage was 0.156.

Turning to C4G A26U, the self-cleavage came to 0.204.

Regarding U5A A59G, the self-cleavage came to 0.213.

On to C4A G29U, for which the self-cleavage was 0.111.

In the case of C4A G29C, the self-cleavage was 0.118.

With C4G U52A, the self-cleavage turned out to be 0.143.

C4G U52G: the self-cleavage amounted to 0.184.

C4G U62C: the self-cleavage was 0.148.

For the variant C4G U62G, the self-cleavage is 0.114.

For the variant U5A A11U, the self-cleavage stood at 0.196.

Take U5A A41C: the self-cleavage stood at 0.554.

As for C4A A45C, the self-cleavage was 0.167.

With C4G U67G, the self-cleavage was determined as 0.182.

Consider C4U G19U, for which the self-cleavage came to 0.312.

C3U G29A: the self-cleavage came to 0.173.

In the case of C4G G69A, the self-cleavage was 0.132.

Take C4G G69U: the self-cleavage was 0.118.

On to U5A G32C, for which the self-cleavage stood at 0.0597.

Take U5A G32U: the self-cleavage was 0.153.

On to C3U U33A, for which the self-cleavage was determined as 0.147.

On to C3U U33G, for which the self-cleavage was found to be 0.126.

C3U U33C: the self-cleavage is 0.167.

As to U5A A35G, the self-cleavage was 0.559.

With U5A A35U, the self-cleavage came to 0.295.

Take U5A G34C: the self-cleavage was 1.27.

Turning to U5A G34U, the self-cleavage was 1.07.

For U5A G34A, the self-cleavage worked out at 0.435.

As for C4U G34A, the self-cleavage stood at 0.688.

As for C4G C48U, the self-cleavage stood at 0.146.

In the case of U5A A64G, the self-cleavage came out at 0.154.

Turning to U5A A31C, the self-cleavage was determined as 0.156.

In the case of U5A A31G, the self-cleavage worked out at 0.212.

C4G A35G: the self-cleavage was 0.153.

In the case of C3U U7C, the self-cleavage came out at 0.553.

In the case of C3U U7G, the self-cleavage is 0.464.

With C4G G42U, the self-cleavage is 0.121.

Take C4G G42A: the self-cleavage worked out at 0.194.

In the case of C4G A45C, the self-cleavage was 0.0824.

For the variant C4A C50U, the self-cleavage amounted to 0.13.

C4A G17U: the self-cleavage was found to be 0.148.

Take U5A A22U: the self-cleavage worked out at 0.274.

Consider C4A A24U, for which the self-cleavage amounted to 0.196.

Take C4G A22C: the self-cleavage worked out at 0.206.

C4G A41G: the self-cleavage came out at 0.219.

Turning to C4U A31U, the self-cleavage came to 0.104.

In the case of C4U A31C, the self-cleavage is 0.193.

As for U5C C46G, the self-cleavage came out at 0.0996.

As for C4G G29U, the self-cleavage is 0.13.

In the case of C4A G21A, the self-cleavage came out at 0.165.

U5A C46G: the self-cleavage was found to be 0.232.

Consider C4A A47G, for which the self-cleavage was found to be 0.188.

As to C4A A47C, the self-cleavage was 0.205.

With U5A U70A, the self-cleavage turned out to be 0.286.

Take U5A U70C: the self-cleavage came out at 0.543.

On to C4A A35G, for which the self-cleavage amounted to 0.33.

For the variant C4A A35U, the self-cleavage is 0.188.

With C4U U5C, the self-cleavage was 0.109.

With C4U U5G, the self-cleavage is 0.343.

With C4G C37G, the self-cleavage was 0.168.

For the variant C4G C37A, the self-cleavage was 0.209.

For the variant C4U A41U, the self-cleavage came to 0.71.

Take C4U A41C: the self-cleavage amounted to 0.469.

For the variant C4A U20C, the self-cleavage was 0.267.

Consider U5C G13C, for which the self-cleavage came out at 0.47.

Take U5C G19U: the self-cleavage was found to be 0.565.

Turning to U5C G19C, the self-cleavage worked out at 0.435.

C4U U55G: the self-cleavage was determined as 0.157.

For the variant C4U G25A, the self-cleavage worked out at 0.129.

In the case of C4U A71U, the self-cleavage came out at 0.282.

In the case of C4U U8A, the self-cleavage is 0.2.

In the case of C3U G27U, the self-cleavage came out at 0.15.

Consider C4U A35C, for which the self-cleavage turned out to be 0.418.

With C4U C48U, the self-cleavage worked out at 0.142.

Consider C4G G13A, for which the self-cleavage was 0.193.

Regarding C4G C12A, the self-cleavage was found to be 0.071.

Turning to U5C A26G, the self-cleavage was found to be 1.26.

Consider C4U U67C, for which the self-cleavage came out at 0.128.

Take C4U U67G: the self-cleavage worked out at 0.143.

With C3U U5A, the self-cleavage amounted to 0.429.

In the case of U5C A36U, the self-cleavage is 0.348.

Consider C4A U9C, for which the self-cleavage amounted to 0.163.

With C4A U9G, the self-cleavage worked out at 0.151.

With U5A A44C, the self-cleavage was 0.156.

U5A A44G: the self-cleavage was found to be 0.121.

Take U5A G56U: the self-cleavage stood at 0.206.

On to U5A G56C, for which the self-cleavage was 0.0893.

With C3U G51U, the self-cleavage is 0.538.

C3U G51C: the self-cleavage stood at 0.402.

Take U5C A24U: the self-cleavage is 0.229.

As for U5A C12U, the self-cleavage stood at 0.314.

For C4U A47C, the self-cleavage turned out to be 0.0918.

With C4U A47U, the self-cleavage was found to be 0.115.

Regarding U5A C18G, the self-cleavage stood at 0.306.

Consider U5A C18A, for which the self-cleavage amounted to 0.525.

For C4G A39G, the self-cleavage was 0.0945.

For the variant C4G A39C, the self-cleavage is 0.193.

Take C4G C16G: the self-cleavage was 0.201.

For C4A A11U, the self-cleavage amounted to 0.258.

For the variant C4A A11G, the self-cleavage was found to be 0.158.
